Laboratory results published in patent US20230088052A1.
Like-named read-outs stand apart in the source and are kept apart here.

Columns and labels:
[1] = target: his-tagged human IL-4R recombinant protein (h-IL-4R-his) (human) (UniProt P24394); assay: binding ELISA, human IL-4R-his coated
[2] = target: his-tagged human IL-4R recombinant protein (h-IL-4R-his) (human) (UniProt P24394); assay: binding ELISA, human IL-4R-his coated; remark: listed apart in the source
[3] = target: humanized Fc-tagged human IL-4R recombinant protein (h-IL-4R-Fc) (human) (UniProt P24394); assay: blocking ELISA: human IL-4R-Fc coated, antibody blocks the binding of IL-4
[4] = target: humanized Fc-tagged human IL-4R recombinant protein (h-IL-4R-Fc) (human) (UniProt P24394); assay: blocking ELISA of human IL-4/IL-4R
[5] = target: his-tagged human IL-4R recombinant protein (h-IL-4R-his) (human) (UniProt P24394); assay: Biacore SPR: antibody captured, IL-4R antigen in flow, 1:1 model
[6] = target: his-tagged human IL-4R recombinant protein (h-IL-4R-his) (human) (UniProt P24394); assay: binding ELISA, human IL-4R-his coated; remark: listed apart in the source
[7] = target: humanized Fc-tagged human IL-4R recombinant protein (h-IL-4R-Fc) (human) (UniProt P24394); assay: blocking ELISA: human IL-4R-Fc coated, antibody blocks the binding of IL-4; remark: listed apart in the source

Sequence of Dupilumab (antibody) (VH): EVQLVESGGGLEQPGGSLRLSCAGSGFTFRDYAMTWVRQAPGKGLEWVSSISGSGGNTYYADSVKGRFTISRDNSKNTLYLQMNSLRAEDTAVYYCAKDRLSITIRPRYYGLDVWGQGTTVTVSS
Sequence of Dupilumab (antibody) (VL): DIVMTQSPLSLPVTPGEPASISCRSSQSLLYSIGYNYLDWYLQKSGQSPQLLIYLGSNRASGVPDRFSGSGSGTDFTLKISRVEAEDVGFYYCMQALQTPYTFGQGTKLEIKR

Dupilumab (antibody) showed an EC50 [1] of 0.0558 µg/mL, an EC50 [2] of 0.0426 µg/mL and an IC50 [3] of 0.209 µg/mL. The IC50 [4] was 0.156 µg/mL, the Kd [5] was 0.126 nM and the EC50 [6] was 0.0276 µg/mL. The IC50 [7] was 0.0521 µg/mL.
